Experiment [1] has as its target human Heat Shock Factor 1 (HSF1) tagged with GFP (Homo sapiens; Aequorea victoria) (UniProt Q00613). The experiment can be described thus: AptA-MS of HSF1-GFP from non-heat-shocked HCT116 cells, SAINT probability score of interaction.
The target is the same in experiment [2]. Briefly: AptA-MS of HSF1-GFP from heat-shocked HCT116 cells, SAINT probability score of interaction.
Experiment [3] shares this target. Briefly: AptA-MS: GFP-aptamer pull-down of HSF1-GFP from HCT116 lysate, mass spectrometry, SAINT probability score of interaction.

Sequence of UniProt Q00613 (Q00613 whole entry): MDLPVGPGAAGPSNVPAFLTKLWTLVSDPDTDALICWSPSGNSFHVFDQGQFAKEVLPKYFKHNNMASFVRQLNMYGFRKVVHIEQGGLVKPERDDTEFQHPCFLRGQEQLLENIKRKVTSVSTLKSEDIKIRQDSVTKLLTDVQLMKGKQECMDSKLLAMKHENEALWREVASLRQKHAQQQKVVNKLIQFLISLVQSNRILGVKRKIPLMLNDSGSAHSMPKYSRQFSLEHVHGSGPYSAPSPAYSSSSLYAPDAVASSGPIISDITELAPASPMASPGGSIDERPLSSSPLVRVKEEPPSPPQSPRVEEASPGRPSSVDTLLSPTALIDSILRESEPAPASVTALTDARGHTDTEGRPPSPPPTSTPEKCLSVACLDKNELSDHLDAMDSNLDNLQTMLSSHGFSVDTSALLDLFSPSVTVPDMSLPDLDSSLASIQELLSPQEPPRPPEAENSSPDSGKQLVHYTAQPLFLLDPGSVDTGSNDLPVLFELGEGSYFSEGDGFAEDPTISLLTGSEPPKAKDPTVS

Regarding HSF2 (from UniProt Q03933 1-536), the SAINT score in experiment [1] is 0.78.

As for “translation elongation factor HBS1 (from UniProt Q9Y450 1-684)”, the SAINT score in experiment [2] was found to be 0.92.

Turning to “Elongation Factor 1-alpha 2 (from UniProt Q05639 2-463)”, in experiment [3], the SAINT score was found to be 0.66.

As to “Thymidylate Kinase (from UniProt P23919 2-212) (enzyme)”, the SAINT score in experiment [2] was determined as 0.98.

“Elongation Factor 1-alpha 1 (from UniProt P68104 2-462)” came in with an SAINT score in experiment [3] of 0.69.

Source of the values: patent US20210254073A1.
